Source: US10428140B2, “Anti-EphA4 antibody” (EISAI R&D MANAGEMENT CO., LTD., priority 2015, dated 2019)

T1: human EphB2 (Homo sapiens, UniProt P29323)
T1 construct: a protein of the extracellular region of each human Eph receptor fused with the SEAP protein and the His tag; made in house; host or cells: Expi293F cells
T1 sequence (P29323 19-543 limits assumed): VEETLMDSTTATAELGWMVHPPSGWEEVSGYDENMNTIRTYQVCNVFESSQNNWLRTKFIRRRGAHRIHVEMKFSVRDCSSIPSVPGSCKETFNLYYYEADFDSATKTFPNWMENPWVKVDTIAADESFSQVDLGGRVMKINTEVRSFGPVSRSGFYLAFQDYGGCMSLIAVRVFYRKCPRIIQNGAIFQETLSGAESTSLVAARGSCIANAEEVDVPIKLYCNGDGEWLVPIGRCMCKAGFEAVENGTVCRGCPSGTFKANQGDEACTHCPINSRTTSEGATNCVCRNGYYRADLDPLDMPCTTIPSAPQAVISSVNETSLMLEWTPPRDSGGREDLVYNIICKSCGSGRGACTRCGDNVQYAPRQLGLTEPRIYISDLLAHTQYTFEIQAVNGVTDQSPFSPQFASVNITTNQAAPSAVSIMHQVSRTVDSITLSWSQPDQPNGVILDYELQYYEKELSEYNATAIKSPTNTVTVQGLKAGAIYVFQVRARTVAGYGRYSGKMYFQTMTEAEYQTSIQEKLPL

T2: human EphB4 (Homo sapiens, UniProt P54760)
T2 construct: a protein of the extracellular region of each human Eph receptor fused with the SEAP protein and the His tag; made in house; host or cells: Expi293F cells
T2 sequence (P54760 16-539 limits assumed): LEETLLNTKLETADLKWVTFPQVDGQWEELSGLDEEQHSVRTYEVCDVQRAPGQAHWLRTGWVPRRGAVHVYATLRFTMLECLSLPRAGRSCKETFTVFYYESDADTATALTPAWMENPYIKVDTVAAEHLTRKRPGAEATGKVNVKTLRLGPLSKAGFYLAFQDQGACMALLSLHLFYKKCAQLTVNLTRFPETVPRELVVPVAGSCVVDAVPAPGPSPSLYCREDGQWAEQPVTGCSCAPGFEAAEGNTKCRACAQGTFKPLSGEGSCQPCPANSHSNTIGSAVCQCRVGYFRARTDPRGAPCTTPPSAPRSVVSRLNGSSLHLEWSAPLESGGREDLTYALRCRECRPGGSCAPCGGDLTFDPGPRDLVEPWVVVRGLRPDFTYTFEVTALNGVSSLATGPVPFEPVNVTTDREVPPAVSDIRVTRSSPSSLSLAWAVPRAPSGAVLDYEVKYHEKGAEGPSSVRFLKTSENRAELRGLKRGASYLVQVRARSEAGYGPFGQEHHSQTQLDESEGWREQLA


Columns and labels:
Test in all cases: Selectivity ELISA of humanized antibodies for human Eph receptor
Type in all cases: binding
[1] = biological target: T3, human EphA2 (Homo sapiens, UniProt P29317); details: coated protein 1 nM
T3 construct: a protein of the extracellular region of each human Eph receptor fused with the SEAP protein and the His tag; made in house; host or cells: Expi293F cells (culture supernatant)
T3 sequence (P29317 24-537 limits assumed): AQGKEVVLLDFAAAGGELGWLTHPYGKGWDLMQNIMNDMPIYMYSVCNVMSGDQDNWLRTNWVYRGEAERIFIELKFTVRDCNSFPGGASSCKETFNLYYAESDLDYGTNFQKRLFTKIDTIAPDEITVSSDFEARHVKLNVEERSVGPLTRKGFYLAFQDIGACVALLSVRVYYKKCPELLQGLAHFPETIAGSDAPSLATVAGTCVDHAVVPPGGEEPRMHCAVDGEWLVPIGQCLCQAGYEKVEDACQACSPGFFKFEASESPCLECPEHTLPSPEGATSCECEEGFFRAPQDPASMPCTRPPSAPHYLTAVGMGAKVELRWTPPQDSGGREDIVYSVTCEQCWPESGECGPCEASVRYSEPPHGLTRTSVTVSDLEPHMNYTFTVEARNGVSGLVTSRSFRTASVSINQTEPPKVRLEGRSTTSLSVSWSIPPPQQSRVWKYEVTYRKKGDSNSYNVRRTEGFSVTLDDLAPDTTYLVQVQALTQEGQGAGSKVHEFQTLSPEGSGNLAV
How it was run: (§1)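 His-tagged SEAP fusions of each human Eph receptor extracellular region, from Expi293F supernatants, were captured at 1 nM on anti-His-coated wells. Humanized antibody was bound 1 h at room temperature, then detected with HRP […] IgG. TMB development was acid-stopped and read at 450 nm.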

[2] = biological target: T4, human EphA4 (Homo sapiens, UniProt P54764); details: coated protein 1 nM; reference set to 100%
T4 construct: made in house; not restated for the human SEAP-His protein
T4 sequence (P54764 20-547): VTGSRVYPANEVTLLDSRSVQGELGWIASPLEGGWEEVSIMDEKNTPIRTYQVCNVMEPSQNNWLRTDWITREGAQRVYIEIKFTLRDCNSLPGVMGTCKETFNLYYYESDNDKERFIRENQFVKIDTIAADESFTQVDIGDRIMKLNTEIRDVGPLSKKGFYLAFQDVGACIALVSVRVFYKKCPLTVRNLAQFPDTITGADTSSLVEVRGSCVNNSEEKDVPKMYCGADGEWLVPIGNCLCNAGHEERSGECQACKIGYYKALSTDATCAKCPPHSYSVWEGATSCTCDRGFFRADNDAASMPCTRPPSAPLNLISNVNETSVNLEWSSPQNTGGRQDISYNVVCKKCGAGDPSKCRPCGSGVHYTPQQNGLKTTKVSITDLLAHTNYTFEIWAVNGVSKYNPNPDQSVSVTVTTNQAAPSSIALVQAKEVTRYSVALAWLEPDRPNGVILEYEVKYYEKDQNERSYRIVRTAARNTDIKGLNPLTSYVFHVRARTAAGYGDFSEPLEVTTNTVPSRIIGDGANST
How it was run: as §1

[3] = biological target: T1, human EphB2; details: coated protein 1 nM
How it was run: as §1

[4] = biological target: T2, human EphB4; details: coated protein 1 nM
How it was run: as §1

| hEphA2-SEAP-: absorbance at 450 nm, percentage with respect to hEphA4-SEAP-His as 100% [1] [%] | hEphA4-SEAP-: absorbance at 450 nm, percentage with respect to hEphA4-SEAP-His as 100% [2] [%] | hEphB2-SEAP-: absorbance at 450 nm, percentage with respect to hEphA4-SEAP-His as 100% [3] [%] | hEphB4-SEAP-: absorbance at 450 nm, percentage with respect to hEphA4-SEAP-His as 100% [4] [%] | Molecule |
| --- | --- | --- | --- | --- |
| 5.0 | 100 | 5.0 | 5.1 | 135 (antibody, V domains shown, synthetic humanized antibody heavy chain variable region sequence; synthetic humanized antibody light chain variable region sequence) VH: QVQLVQSGSELKKPGASVKVSCKASGYTFTDYSMHWVRQAPGQGLEWMGWINTETGEPTYADDFKGRFVFSLDTSVSTAYLQISSLKAEDTAVYYCARIPLYYYGSRYWYFDVWGQGTTVTVSS VL: EIVMTQSPATLSVSPGERATLSCRASENIYRNLAWYQQKPGQSPRLLIYAATNLADGIPARFSGSGSGTEYTLTISSLQSEDFAVYYCQHFWGTPWTFGQGTKVEIK |
| 4.8 | 100 | 4.9 | 5.2 | 76 (antibody, V domains shown, synthetic humanized antibody heavy chain variable region sequence; synthetic humanized antibody light chain variable region sequence) VH: QVQLVQSGSELKKPGASVKVSCKASGYTFTDYSMHWVRQAPGQGLKWMGWINTETGEPTYAQGFTGRFVFSLDTSVSTAYLQISSLKAEDTAVYYCARIPLYYYGSRYWYFDVWGQGTTVTVSS VL: DIQMTQSPSSLSASVGDRVTITCRASENIYRNLAWYQQKPGKAPKLLVYAATNLADGVPSRFSGSGSGTDYTLTISSLQPEDFATYYCQHFWGTPWTFGQGTKVEIK |

Further lines, the molecule ahead of its results:

| Molecule | hEphA2-SEAP-: absorbance at 450 nm, percentage with respect to hEphA4-SEAP-His as 100% [1] [%] | hEphA4-SEAP-: absorbance at 450 nm, percentage with respect to hEphA4-SEAP-His as 100% [2] [%] | hEphB2-SEAP-: absorbance at 450 nm, percentage with respect to hEphA4-SEAP-His as 100% [3] [%] | hEphB4-SEAP-: absorbance at 450 nm, percentage with respect to hEphA4-SEAP-His as 100% [4] [%] |
| --- | --- | --- | --- | --- |
| 75 (antibody, synthetic humanized antibody heavy chain variable region sequence; synthetic humanized antibody light chain variable region sequence; synthetic antibody constant region sequence) VH: QVQLVQSGSELKKPGASVKVSCKASGYTFTDYSMHWVRQAPGQGLEWMGWINTETGEPTYAQGFTGRFVFSLDTSVSTAYLQISSLKAEDTAVYYCARIPLYYYGSRYWYFDVWGQGTTVTVSS VL: DIQMTQSPSSLSASVGDRVTITCRASENIYRNLAWYQQKPGKAPKLLVYAATNLADGVPSRFSGSGSGTDYTLTISSLQPEDFATYYCQHFWGTPWTFGQGTKVEIK ASTKGPSVFPLAPSSKSTSGGTAALGCLVKDYFPEPVTVSWNSGALTSGVHTFPAVLQSSGLYSLSSVVTVPSSSLGTQTYICNVNHKPSNTKVDKRVEPKSCDKTHTCPPCPAPPAAAPSVFLFPPKPKDTLMISRTPEVTCVVVDVSHEDPEVQFNWYVDGVEVHNAKTKPREEQFNSTFRVVSVLTVVHQDWLNGKEYKCKVSNKGLPAPIEKTISKTKGQPREPQVYTLPPSREEMTKNQVSLTCLVKGFYPSDIAVEWESNGQPENNYKTTPPMLDSDGSFFLYSKLTVDKSRWQQGNVFSCSVMHEALHNHYTQKSLSLSPG | 4.6 | 100 | 4.5 | 4.6 |
| 67 (antibody, V domains shown, synthetic humanized antibody heavy chain variable region sequence; synthetic humanized antibody light chain variable region sequence) VH: QIQLVQSGSELKKPGASVKVSCKASGYTFTDYSMHWVRQAPGQGLKWMGWINTETGEPTYAQGFTGRFVFSLDTSVSTAYLQISSLKAEDTAVYYCARIPLYYYGSRYWYFDVWGQGTTVTVSS VL: DIQMTQSPSSLSASVGDRVTITCRASENIYRNLAWYQQKPGKAPKLLVYAATNLADGVPSRFSGSGSGTDYTLTISSLQPEDFATYYCQHFWGTPWTFGQGTKVEIK | 4.6 | 100 | 4.7 | 4.9 |
